Holding throughout (test): ITC
Background: Isothermal titration calorimetry measures the heat released or taken up as one component is titrated into another.

The target in assay [1] is TGF-β mimic 6 (TGM6), full-length (Heligmosomoides polygyrus).
Assay [2] deals with TGM6 domain 3 (TGM6-D3) (Heligmosomoides polygyrus).
Assay [3] has as its target TGF-β type II receptor (TβRII) (UniProt P37173).

Broadly, the Kd is a measure of binding affinity in units of concentration. Read a low Kd as tighter binding. For “TGF-β type II receptor (TβRII) (from UniProt P37173 46-155)”, the values for the Kd in assay [1] and in assay [2] were 220 nM and 440 nM, respectively. As to TGM1-D3 S242R (domain or fragment), the fold gain of binding affinity against wild type in assay [3] was 4 fold. Regarding TGM6-D3 I78A (domain or fragment), in assay [3], the fold decrease in binding affinity against wild type turned out to be 15.4 fold.

The substance TGM6-D3 R38A (domain or fragment) showed a fold decrease in binding affinity against wild type in assay [3] of 22 fold. On the same count and under the same terms, the figure for TGM6-D3 R82A (domain or fragment) is 11 to 12 fold. TGM6-D3 R82S (domain or fragment) displayed a fold loss of binding affinity against wild type in assay [3] of 7.4 fold.

In assay [3], TGM6-D3 R95A (domain or fragment) yielded a fold decrease in binding affinity against wild type of 11.6 fold. The substance TGM6-D3 Y80A (domain or fragment) showed a fold decrease in binding affinity against wild type in assay [3] of 134 fold.

As to TGM6-D3 Y80F (domain or fragment), the fold decrease in binding affinity against wild type in assay [3] turned out to be 3.5 fold.

As to TGM6-D3 Y93A (domain or fragment), the fold decrease in binding affinity against wild type in assay [3] amounted to 108 fold.

Source of the values: article doi:10.1101/2023.12.22.573140.
